According to publication PMC6112833, “Combinatorial engineering of N-TIMP2 variants that selectively inhibit MMP9 and MMP14 function in the cell” (Oncotarget, 2018):

T1: MMP1 catalytic domain (MMP1CAT) (UniProt P03956 100-269)
T1 construct: catalytic domain of MMP1 (collagenase); source: purified as previously described [66, 91]
T1 sequence (looked up): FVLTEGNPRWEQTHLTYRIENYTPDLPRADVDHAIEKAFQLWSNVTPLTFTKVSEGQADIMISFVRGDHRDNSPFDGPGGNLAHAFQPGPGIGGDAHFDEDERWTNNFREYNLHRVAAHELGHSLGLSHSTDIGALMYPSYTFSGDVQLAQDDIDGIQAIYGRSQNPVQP

T2: MMP9 catalytic domain lacking the fibronectin-like domain (MMP9CAT, residues 107-215 and 391-443) (human, UniProt P14780 107-215; P14780 391-443, conjugated to DyLight-650 for the yeast display sorting and flow cytometry)
T2 chain (looked up): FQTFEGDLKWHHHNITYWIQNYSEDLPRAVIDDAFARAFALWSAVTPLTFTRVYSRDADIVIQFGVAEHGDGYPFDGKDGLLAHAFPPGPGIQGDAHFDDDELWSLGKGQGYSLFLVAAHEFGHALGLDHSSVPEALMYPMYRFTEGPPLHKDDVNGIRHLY


How the values were obtained:
[1] = biological target: T3, MMP10 catalytic domain (MMP10CAT) (UniProt P09238 99-263); assay: enzyme inhibition assay (fluorogenic substrate, fit to Morrison's tight binding equation); 0.0075 nM MMP14CAT or MMP9CAT (MMP1CAT, MMP10CAT: concentration not stated) incubated with 0.4-25 nM or 1.5-500 nM inhibitor for 1 h at 37 C in TCNB buffer (50 mM Tris-HCl pH 7.5, 100 mM NaCl, 5 mM CaCl2, 0.05% Brij), then 15 uM Mca-Pro-Leu-Gly-Leu-Dpa-Ala-Arg-NH2; Ki from the apparent Ki; mean of three experiments; conditions: both partners purified
T3 construct: catalytic domain of MMP10 (stromelysin); source: purified as previously described [66, 91]
T3 sequence (P09238 99-263): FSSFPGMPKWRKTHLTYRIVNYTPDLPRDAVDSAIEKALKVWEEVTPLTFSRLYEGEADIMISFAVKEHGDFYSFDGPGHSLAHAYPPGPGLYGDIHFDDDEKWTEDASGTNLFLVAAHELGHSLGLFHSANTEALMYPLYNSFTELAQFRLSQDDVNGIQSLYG

[2] = biological target: T1, MMP1 catalytic domain (MMP1CAT); assay: as above; conditions: both partners purified
[3] = biological target: T4, MMP14 catalytic domain (MMP14CAT, residues 112-292) (human, UniProt P50281 112-292, conjugated to DyLight-488 for the yeast display sorting and flow cytometry); assay: cell-based or functional assay
[4] = biological target: T2, MMP9 catalytic domain lacking the …; assay: cell-based or functional assay
[5] = biological target: T4, MMP14 catalytic domain (MMP14CAT, …); assay: enzyme inhibition assay (fluorogenic substrate, fit to Morrison's tight binding equation); 0.0075 nM MMP14CAT or MMP9CAT (MMP1CAT, MMP10CAT: concentration not stated) incubated with 0.4-25 nM or 1.5-500 nM inhibitor for 1 h at 37 C in TCNB buffer (50 mM Tris-HCl pH 7.5, 100 mM NaCl, 5 mM CaCl2, 0.05% Brij), then 15 uM Mca-Pro-Leu-Gly-Leu-Dpa-Ala-Arg-NH2; Ki from the apparent Ki; mean of three experiments; conditions: both partners purified
[6] = biological target: T2, MMP9 catalytic domain lacking the …; assay: as above; conditions: both partners purified

| Binder | Ki [1] [nM] | Ki [2] [nM] | inhibition of MMP2 activation by MMP14 in U87MG cells (gelatin zymography of media, 100 nM inhibitor, 48 h) [3] [%] | inhibition of trans-well migration of MCF-7-MMP14 cells (100 nM inhibitor, 24 h) [3] [%] | inhibition of the gelatin-degrading activity of MMP9 from MCF-7-MMP9 supernatant (gelatin zymography, gel incubated with 100 nM inhibitor) [4] [%] | Ki [5] [nM] | Ki [6] [nM] |
| --- | --- | --- | --- | --- | --- | --- | --- |
| N-TIMP2WT, wild type N-terminal domain of the tissue inhibitor of metalloproteinase-2, soluble form (domain or fragment, UniProt P16035 27-153, looked up, limits worked out from the printed primers (forward primer encodes CSCSP, reverse primer ends at YQMGCE); also called wild-type N-TIMP-2; source: P. pastoris X33 (pPICZalphaA), secreted, purified (Ni-NTA, Superdex 75 SEC)) CSCSPVHPQQAFCNADVVIRAKAVSEKEVDSGNDIYGNPIKRIQYEIKQIKMFKGPEKDIEFIYTAPSSAVCGVSLDVGGKKEYLIAGKAEGDGKMHITLCDFIVPWDTLSTTQKKSLNHRYQMGCE | 3.5 ± 0.8 | 0.7 ± 0.1 | 45 | 30 | ~86 | 5 ± 1 | 0.5 ± 0.04 |
| N-TIMP2_(9_13), soluble form (designed binder, limits worked out from the printed primers (forward primer encodes CSCP, reverse primer ends at YQMGCE); source: P. pastoris X33 (pPICZalphaA), secreted, purified (Ni-NTA, Superdex 75 SEC)) CSCPPVHPQQAFCNADVVIRAKAVSEKEVDSGNDPYGWPIKRIQYEIKQIKMFKGPEKDIEFIYTAPNSAVCGVSLDVGGKKEYLIAGKAEGDGKMKIKLCDFIVPWDTLSTTQKKSLNHRYQMGCE | 40 ± 14 | 18 ± 8 | – | – | ~75 | 832 ± 44 | 1.2 ± 0.007 |

Further lines, results first:

| Ki [1] [nM] | Ki [2] [nM] | inhibition of MMP2 activation by MMP14 in U87MG cells (gelatin zymography of media, 100 nM inhibitor, 48 h) [3] [%] | inhibition of trans-well migration of MCF-7-MMP14 cells (100 nM inhibitor, 24 h) [3] [%] | inhibition of the gelatin-degrading activity of MMP9 from MCF-7-MMP9 supernatant (gelatin zymography, gel incubated with 100 nM inhibitor) [4] [%] | Ki [5] [nM] | Ki [6] [nM] | Binder |
| --- | --- | --- | --- | --- | --- | --- | --- |
| – | – | 50 | ~50 | – | 0.024 ± 0.005 | 1.25 ± 0.2 | N-TIMP2_(14_18), soluble form (designed binder, limits worked out from the printed primers (forward primer encodes CSCK, reverse primer ends at YQMGCE); also called N-TMP2_(14_18); source: P. pastoris X33 (pPICZalphaA), secreted, purified (Ni-NTA, Superdex 75 SEC)) CSCKPVHPQQAFCNADVVIRAKAVSEKEVDSGNDLYGFPIKRIQYEIKQIKMFKGPEKDIEFIYTAPFSAVCGVSLDVGGKKEYLIAGKAEGDGKMEITLCDFIVPWDTLSTTQKKSLNHRYQMGCE |
| – | – | – | – | ~82 | 240 ± 31 | 0.78 ± 0.02 | N-TIMP2_(9_1), soluble form (designed binder, limits worked out from the printed primers (forward primer encodes CSCP, reverse primer ends at YQMGCE); source: P. pastoris X33 (pPICZalphaA), secreted, purified (Ni-NTA, Superdex 75 SEC)) CSCPPVHPQQAFCNADVVIRAKAVSEKEVDSGNDPYGWPIKRIQYEIKQIKMFKGPEKDIEFIYTAPNSAICGVSLDVGGKKEYLIAGKAEGDGKMMIKLCDFIVPWDTLSTTQKKSLNHRYQMGCE |
| 3.2 ± 0.4 | 0.92 ± 0.15 | 45 | 38 | – | 0.03 ± 0.003 | 3.58 ± 0.5 | N-TIMP2_(14_17), soluble form (designed binder, limits worked out from the printed primers (forward primer encodes CSCD, reverse primer ends at YQMGCE); source: P. pastoris X33 (pPICZalphaA), secreted, purified (Ni-NTA, Superdex 75 SEC)) CSCDPVHPQQAFCNADVVIRAKAVSEKEVDSGNDLYGSPIKRIQYEIKQIKMFKGPEKDIEFIYTAPDSASCGVSLDVGGKKEYLIAGKAEGDGKMSIFLCDFIVPWDTLSTTQKKSLNHRYQMGCE |
